Positions count from the first letter of the chain named. Numbers in names are those of the source.
Tests used:
[1] = test system: HMEL-BRAF^V600E melanocytes; test: In vivo functional genetic screen and secondary validation: kinase-transduced HMEL cells implanted in nude mice; parameters: species or system human; settings: for Tumorigenicity in vivo: WT or mutant kinase expressed individually
Text: A ‘cancer-kinase’ library was constructed containing sequence-verified ORFs in a lentiviral vector for 110 of the 120 kinases reported to sustain somatic driver mutations in diverse human cancers. This library was pooled and introduced into a human HMEL-BRAF^V600E melanocyte model system engineered with BRAF^V600E and TERT as well as p53DD and CDK4-R24C to inactivate the […] pathways, respectively. The HMEL-BRAF^V600E melanocyte profile, while representing the most common clinically-definable genetic profile in human melanoma, is insufficient to drive efficient melanoma formation following orthotopic transplantation in the skin (penetrance of 10% and latency of 26 weeks). In contrast, 40% of HMEL-BRAF^V600E melanocytes transduced with the cancer kinase pools developed tumors with an average latency of 13 weeks (range 10-18 weeks).
In vivo functional genetic screens: Lentivirus were prepared by co-transfecting 293T cells with individual vector backbones and standard virus packaging systems for subsequent collection of viral supernatants. Viral supernatants were then pooled randomly to generate 8 pools of high-titer lentiviral stocks. HMEL cells were transduced with either GFP control lentivirus or each representative lentiviral pool in the presence of 8 ug/ml polybrene (Company). Infected cells were expanded, mixed 1:1 with Matrigel (BD Bioscience) and then subcutaneously implanted in female nude animals (Taconic) at 1×10^6 cells per site on both flanks. Primary INK4A/ARF−/−, PTEN−/− murine astrocytes were transduced with either GFP control lentivirus or each representative lentiviral pool in the presence of 8 ug/ml polybrene (Company). Infected cells were expanded implanted into the brain parenchyma of female SCID mice (Charles River). Briefly, SCID mice were anesthetized and placed into a stereotactic apparatus equipped with a Z axis (Stoelting). A small hole was bored in the skull 0.5 mm anterior and 3.0 mm lateral to the bregma using a dental drill. Twenty thousand cells in Hank's Buffered Salt Solution were injected into the right caudate nucleus 2 mm below the surface of the brain using a 10-ul Hamilton syringe with an unbeveled 30 gauge needle. The scalp was closed using a 9-mm Autoclip Applier. Animals were followed daily for the development of subQ tumors or signs of neurological deficits. Animals were sacrifice, tumors were harvested, genomic DNA was prepared and kinases expressed in each tumor identified using PCR sequencing using plasmid specific CMV and V5 primers. Expression of each kinase was further validated by western blot analysis. Kinases expressed in each tumor were then enlisted into secondary validation screens in which stable HMEL or mouse astrocyte lines were generated expressing each kinase individually. Cells were again expanded and then implanted in female nude or SCID animals. All mice were housed and treated in accordance with protocols approved by the institutional care and use committees for animal research at the Dana-Farber Cancer Institute.

cJUN phosphorylation = test: JNK Kinase Assay (WT and mutant kinases immunoprecipitated from HMEL cells); format: biochemical, human; settings: as reported by level of cJUN phosphorylation; for MAP2K4/7 first incubated with inactive JNK2

B1: MAP2K4 p.Q142L: MAP2K4 somatic driver mutant, observed in colorectal adenocarcinoma (protein, UniProt P45985 2-399, looked up, variant Q142L)
Dual specificity …: AAPSPSGGGGSGGGSGSGTPGPVGSPAPGHPAVSSMQGKRKALKLNFANPPFKSTARFTLNPNPTGVQNPHIERLRTHSIESSGKLKISPEQHWDFTAEDLKDLGEIGRGAYGSVNKMVHKPSGQIMAVKRIRSTVDEKELKQLLMDLDVVMRSSDCPYIVQFYGALFREGDCWICMELMSTSFDKFYKYVYSVLDDVIPEEILGKITLATVKALNHLKENLKIIHRDIKPSNILLDRSGNIKLCDFGISGQLVDSIAKTRDAGCRPYMAPERIDPSASRQGYDVRSDVWSLGITLYELATGRFPYPKWNSVFDQLTQVVKGDPPQLSNSEEREFSPSFINFVNLCLTKDESKRPKYKELLKHPFILMYEERAVEVACYVCKILDQMPATPSSPMYVD
Tumorigenicity in vivo [1]: YES
Kinase Activity (cJUN phosphorylation): 4X

B2: MAP2K4 p.R154W: MAP2K4 somatic driver mutant, observed in colorectal adenocarcinoma (protein, UniProt P45985 2-399, looked up, variant R154W)
Dual specificity …: B1 Dual specificity … with L141Q, R153W
Tumorigenicity in vivo [1]: YES
Kinase Activity (cJUN phosphorylation): 3X

B3: JNK1 P.G171S: JNK1 somatic mutant, observed in renal clear cell carcinoma (protein, UniProt P45983 1-427, looked up, variant G171S)
Mitogen-activated protein …: MSRSKRDNNFYSVEIGDSTFTVLKRYQNLKPIGSGAQGIVCAAYDAILERNVAIKKLSRPFQNQTHAKRAYRELVLMKCVNHKNIIGLLNVFTPQKSLEEFQDVYIVMELMDANLCQVIQMELDHERMSYLLYQMLCGIKHLHSAGIIHRDLKPSNIVVKSDCTLKILDFSLARTAGTSFMMTPYVVTRYYRAPEVILGMGYKENVDLWSVGCIMGEMVCHKILFPGRDYIDQWNKVIEQLGTPCPEFMKKLQPTVRTYVENRPKYAGYSFEKLFPDVLFPADSEHNKLKASQARDLLSKMLVIDASKRISVDEALQHPYINVWYDPSEAEAPPPKIPDKQLDEREHTIEEWKELIYKEVMDLEERTKNGVIRGQPSPLGAAVINGSQHPSSSSSVNDVSSMSTDPTLASDTDSSLEAAAGPLGCCR
Tumorigenicity in vivo [1]: YES
Kinase Activity (cJUN phosphorylation): 1X

B4: MAP2K7 WT: wild type MAP2K7 kinase ORF expressed in HMEL cells (protein, UniProt O14733 2-419, looked up)
Dual specificity …: AASSLEQKLSRLEAKLKQENREARRRIDLNLDISPQRPRPTLQLPLANDGGSRSPSSESSPQHPTPPARPRHMLGLPSTLFTPRSMESIEIDQKLQEIMKQTGYLTIGGQRYQAEINDLENLGEMGSGTCGQVWKMRFRKTGHVIAVKQMRRSGNKEENKRILMDLDVVLKSHDCPYIVQCFGTFITNTDVFIAMELMGTCAEKLKKRMQGPIPERILGKMTVAIVKALYYLKEKHGVIHRDVKPSNILLDERGQIKLCDFGISGRLVDSKAKTRSAGCAAYMAPERIDPPDPTKPDYDIRADVWSLGISLVELATGQFPYKNCKTDFEVLTKVLQEEPPLLPGHMGFSGDFQSFVKDCLTKDHRKRPKYNKLLEHSFIKRYETLEVDVASWFKDVMAKTESPRTSGVLSQPHLPFFR
tumor generation individually in secondary HMEL screens ([1]; kinase transduced individually): did not generate tumors
Kinase Activity (cJUN phosphorylation): 1X

Source: patent publication US20130040853A1, “Context Specific Genetic Screen Platform to Aid in Gene Discovery and Target Validation” (Dana-Farber Cancer Institute Inc., priority 2010, published 2013)
